The text below walks through data of patent publication US20210332109A1 (TANAKA KIKINZOKU KOGYO K K, published 2021).

In this assay the target is T1, protein VZV gE (amino acid sequence at positions 48 to 88) (varicella-zoster virus).
T1 peptide: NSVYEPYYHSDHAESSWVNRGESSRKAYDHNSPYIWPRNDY
Description: ELISA, peptide coated on the plate, antibody at 5 ug/mL. (ELISA stands for enzyme-linked immunosorbent assay.)
Description: After 16 hours, the gE solution was removed, and the well was washed three times with 300 μL of PBST (0.05% Tween 20 in PBS). The liquid remaining in the well was removed by tapping on a paper towel.
As a blocking solution, 300 μL of 5% BSA in PBST (BSA: manufactured by Oriental Yeast Co., Ltd.) was added, followed by incubation at 37° C. for 1 hour. Thereafter, the BSA solution was removed, and the well was washed three times with 300 μL of PBST (0.05% Tween 20 in PBS). The liquid remaining in the well was removed by tapping on a paper towel. […] Thereafter, the primary antibody solution was removed, and the well was washed three times with 300 μL of PBST (0.05% Tween 20 in PBS).

B1: Antibody 18 (antibody, V domains shown)
VH: EVQLQESGPGLVKPSQSLSLTCTVTGYSITSDYAWNWIRQFPGNKLEWMGYISYSGNSSYNPSLKSRISFTRDTSKNQFFLQLNSVTTEDTATYYCARDGSRGFDYWGQGTTLTVSS
VL: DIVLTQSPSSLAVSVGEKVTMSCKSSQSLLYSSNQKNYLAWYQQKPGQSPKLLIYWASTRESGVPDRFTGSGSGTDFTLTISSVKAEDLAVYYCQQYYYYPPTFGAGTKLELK
notes: also called antibody (II); monoclonal antibody produced by Hybridoma 18
As for B1, the binding result is on record as “binds”.
